Measurements published in patent US20180215829A1 (CRESCENDO BIOLOGICS, published 2018).

Assays:
[1] = biological target: T1, recombinant human IL-17RA Fc fusion protein (R&D Systems 177-IR-100) (human, UniProt Q96F46 33-320); assay: BIAcore T200 single-cycle kinetics, IL-17RA-Fc captured on protein G chip, VH as analyte
T1 construct: Bought protein; not shown: Fc domain of human IgG1
T1 sequence: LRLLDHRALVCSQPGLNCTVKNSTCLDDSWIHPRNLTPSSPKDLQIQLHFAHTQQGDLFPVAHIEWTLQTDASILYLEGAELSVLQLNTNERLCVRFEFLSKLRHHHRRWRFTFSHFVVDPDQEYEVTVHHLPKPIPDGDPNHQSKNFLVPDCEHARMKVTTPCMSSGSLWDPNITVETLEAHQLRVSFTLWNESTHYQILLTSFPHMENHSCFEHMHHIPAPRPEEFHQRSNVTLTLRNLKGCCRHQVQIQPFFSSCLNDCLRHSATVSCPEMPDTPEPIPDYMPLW
Experimental: Binding kinetics of anti-IL-17RA VH antibodies were measured on a BIAcore® T200 instrument. For IL-17RA, first a protein G chip was prepared by diluting protein G to 20 ug/ml in acetate buffer, pH 4 (BIAcore®, cat# BR-100-49) and then coupled 1200 RU to a CM5 Series S chip using amine coupling chemistry. This surface was then used to capture IL-17RA Fc fusion protein from solution: IL-17RA at 10 ug/ml in HBS injected for 10 seconds at 30 ul/min flow rate would capture approximately 100-150 RU of IL-17RA onto the protein G surface.
Binding kinetics of anti-IL-17RA VH antibodies were determined by single-cycle kinetics. VH antibodies were prepared in dilution series (typically 1:3 dilution series starting with 100 nM VH at the highest concentration), and then injected over the antigen coated surfaces and also a blank surface, starting with the lowest concentration of VH and then working progressively up to the highest concentration. VH binding kinetics were then determined from the (blank subtracted) sensorgram traces using 1:1 binding models and BIAevaluation software.

[2] = biological target: T2, IL-17RB (UniProt Q9NRM6 18-289, limits assumed); assay: specificity ELISA, antigen coated, anti-His-HRP detection
T2 sequence (looked up): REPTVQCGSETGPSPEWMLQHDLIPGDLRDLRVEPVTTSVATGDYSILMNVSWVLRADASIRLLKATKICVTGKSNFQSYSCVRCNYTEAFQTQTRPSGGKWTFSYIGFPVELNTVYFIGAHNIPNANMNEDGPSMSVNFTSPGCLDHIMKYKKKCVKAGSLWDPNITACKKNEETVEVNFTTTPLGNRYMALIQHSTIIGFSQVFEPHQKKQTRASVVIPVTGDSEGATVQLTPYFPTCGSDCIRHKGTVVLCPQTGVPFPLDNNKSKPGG
Experimental: (§1) The binding ELISA for crude or purified VH was similar to the serum ELISA and phage ELISA, previously described, mostly differing in the final detection steps. Briefly, antigen was immobilised on maxisorb plates (Nunc 443404) by adding 50 ul volumes at 0.1-1 ug/ml in PBS and incubating at 4° C. overnight. Following coating, the antigen solution was aspirated and the plates were washed using PBS (prepared from PBS tablets, Oxoid cat no. BR0014G) supplemented with 0.05% Tween® 20 (sigma P1379), followed by washes with PBS without added Tween®. To block non-specific protein interactions, a solution of 3% skimmed milk powder (Marvel) in PBS was added to the wells and the plate was incubated for at least one hour at room temperature. Dilutions of periplasmic extract or purified VH in 3% Marvel/PBS were prepared in polypropylene tubes or plates and incubated for at least one hour at room temperature prior to transfer to the blocked ELISA plate where a further incubation of at least one hour took place. Unbound protein was then washed away using repetitive washes with PBS/Tween® followed by PBS. A solution of HRP-conjugated anti-His Ab (Miltenyi Biotec, 130-092-785), prepared at 1:1000 dilution in PBS/3% Marvel was then added to each well and a further incubation at room temperature for at least one hour took place. Unbound detection antibody was removed by repeated washing using PBS/Tween® and PBS. The ELISA was then developed using TMB substrate (Sigma cat. no. T0440) and the reaction was stopped after 10 minutes by the addition of 0.5M H₂SO₄ solution (Sigma cat. no. 320501). Absorbances were determined by reading at 450 nm.

[3] = biological target: T3, IL-17RD (UniProt Q8NFM7 17-299, limits assumed); assay: as above
T3 sequence (looked up): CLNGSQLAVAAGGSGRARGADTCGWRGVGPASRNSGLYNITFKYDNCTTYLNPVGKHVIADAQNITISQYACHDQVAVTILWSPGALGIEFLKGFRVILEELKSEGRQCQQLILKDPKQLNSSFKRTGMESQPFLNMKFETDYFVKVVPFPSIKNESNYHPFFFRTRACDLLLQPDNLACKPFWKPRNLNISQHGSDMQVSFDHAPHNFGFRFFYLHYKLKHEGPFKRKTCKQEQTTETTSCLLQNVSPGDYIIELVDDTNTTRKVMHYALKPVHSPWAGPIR
Experimental: as §1

[4] = biological target: T1, recombinant human IL-17RA Fc fusion …; assay: receptor/ligand biochemical inhibition ELISA: VH competes with 1 nM IL-17A for coated IL-17RA-Fc
Experimental: VH, both purified and crude periplasmic extracts, were also tested for their ability to inhibit the interaction of IL-17A with recombinant IL-17RA-Fc. […] Following washing of excess coating antigen, as described above, the wells of the plate were incubated with 3% Marvel/PBS to block non-specific protein interactions. VH preparations, crude periplasmic extracts or purified VH, or suitable controls, were prepared with 1 nM recombinant IL-17A (Peprotech, cat# AF-200-17) in 3% skimmed milk powder/PBS solution in polypropylene plates or tubes. The mixture was then transferred to the assay plate and incubated for 1 hour at room temperature. Excess protein was removed by washing and bound IL-17A was detected by incubation with biotinylated anti-IL-17A Mab (R & D Systems, cat BAF317) followed by the addition of neutravidin-HRP (Pierce, cat#31030) and TMB substrate (Sigma, cat# T0440). The TMB reaction was stopped by addition of 0.5M H₂SO₄ and absorbances were measured at 450 nm in a plate reader.

B1: VH clone 2.1 (VHH)
VHH: QVQLVQSGAEVKKPGASVKVSCKASGYPFTSYDINWVRQATGQSLEWMGWMNPNSGDTVYAQKFQGRVTMTRNTSISTAYMELSSLRSEDTAVYFCARGRRDDWKNNYWGQGTLVTVSS
notes: Human VH single domain antibody, no light chain; Parent clone of family 2; also called VH 2.1
In the case of B1, the Kd [1] is reported as 7 nM, the binding result [2] is reported as “no binding” and the binding result [3] is reported as “no binding”. For the same binder, the IC50 [4] was 3.7 nM.
